test system: Escherichia coli TOP10; experiment: shrunken log2 fold change of peptide-encoding DNA abundance (4.5 h post-induction vs induction); higher = less antimicrobial activity (less host growth inhibition); conditions: time post-induction: 4.5 h; library: site-saturation at positions 5, 18, 19, 20
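Also: peptides expressed intracellularly from a pBAD plasmid library in pooled LB shake-flask culture, induced with 0.3% L-arabinose, DNA abundance read by NGS, three biological replicates, DESeq2 with apeglm shrinkage.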

| Sequence | shrunken log2 fold change |
| --- | --- |
| RRIRSRPPRLPRPRPRPACSPRP | 0.147 |
| RRIRHRPPRLPRPRPRPNWHPRP | -0.242 |
| RRIRERPPRLPRPRPRPFIEPRP | -0.59 |
| RRIRWRPPRLPRPRPRPIGPPRP | -0.0272 |
| RRIRYRPPRLPRPRPRPMLRPRP | -0.256 |
| RRIRVRPPRLPRPRPRPLWQPRP | 2.32 |
| RRIRARPPRLPRPRPRPWQCPRP | -0.197 |
| RRIRLRPPRLPRPRPRPVITPRP | -0.372 |
| RRIRLRPPRLPRPRPRPAYCPRP | -0.088 |
| RRIRIRPPRLPRPRPRPYEGPRP | -0.00931 |
| RRIRPRPPRLPRPRPRPCDWPRP | 0.0592 |
| RRIRNRPPRLPRPRPRPSIQPRP | -0.623 |
| RRIRTRPPRLPRPRPRPMVWPRP | 0.57 |
| RRIRDRPPRLPRPRPRPTAMPRP | 0.858 |
| RRIRIRPPRLPRPRPRPHGSPRP | -0.261 |
| RRIRIRPPRLPRPRPRPGYSPRP | -0.525 |
| RRIRKRPPRLPRPRPRPTGYPRP | 0.214 |
| RRIRQRPPRLPRPRPRPHKCPRP | -0.364 |
| RRIRDRPPRLPRPRPRPRPWPRP | 0.25 |
| RRIRQRPPRLPRPRPRPHPLPRP | -0.0478 |
| RRIRVRPPRLPRPRPRPMWWPRP | -0.0322 |
| RRIRARPPRLPRPRPRPFNGPRP | 0.0657 |

| Sequence | shrunken log2 fold change |
| --- | --- |
| RRIRSRPPRLPRPRPRPLRWPRP | 0.776 |
| RRIRKRPPRLPRPRPRPSADPRP | 0.027 |
| RRIRRRPPRLPRPRPRPQSYPRP | -0.0292 |
| RRIRARPPRLPRPRPRPPNSPRP | 0.136 |
| RRIRLRPPRLPRPRPRPQWWPRP | 0.491 |
| RRIRERPPRLPRPRPRPGMYPRP | -0.0383 |
| RRIRPRPPRLPRPRPRPTWPPRP | 0.47 |
| RRIRSRPPRLPRPRPRPQPVPRP | 0.0573 |
| RRIRIRPPRLPRPRPRPKSKPRP | -0.298 |
| RRIRDRPPRLPRPRPRPTKGPRP | 0.0341 |
| RRIRWRPPRLPRPRPRPFIDPRP | -0.046 |
| RRIRERPPRLPRPRPRPNSRPRP | -0.481 |
| RRIRVRPPRLPRPRPRPYLNPRP | -0.16 |
| RRIRARPPRLPRPRPRPGCVPRP | 0.851 |
| RRIRSRPPRLPRPRPRPSWEPRP | 0.0729 |
| RRIRHRPPRLPRPRPRPWIVPRP | -0.404 |
| RRIRPRPPRLPRPRPRPITIPRP | -0.197 |
| RRIRPRPPRLPRPRPRPKSNPRP | -0.37 |
| RRIRARPPRLPRPRPRPEYIPRP | 0.0332 |
| RRIRIRPPRLPRPRPRPTWMPRP | -0.306 |
| RRIRCRPPRLPRPRPRPDKNPRP | -0.369 |
| RRIRMRPPRLPRPRPRPPIMPRP | 0.0866 |

| Sequence | shrunken log2 fold change |
| --- | --- |
| RRIRKRPPRLPRPRPRPQQDPRP | 0.179 |
| RRIRLRPPRLPRPRPRPVEHPRP | -0.174 |
| RRIRERPPRLPRPRPRPSSTPRP | -0.32 |
| RRIRYRPPRLPRPRPRPDEPPRP | -0.0449 |
| RRIRMRPPRLPRPRPRPCCVPRP | 0.166 |
| RRIRWRPPRLPRPRPRPIAVPRP | 0.187 |
| RRIRHRPPRLPRPRPRPNNGPRP | 0.0142 |
| RRIRFRPPRLPRPRPRPSNWPRP | -0.284 |
| RRIRSRPPRLPRPRPRPMYVPRP | -0.84 |
| RRIRKRPPRLPRPRPRPNITPRP | -0.0249 |
| RRIRWRPPRLPRPRPRPSVLPRP | -0.225 |
| RRIRDRPPRLPRPRPRPVHWPRP | 0.31 |
| RRIRLRPPRLPRPRPRPWRRPRP | 0.0451 |
| RRIRTRPPRLPRPRPRPYLKPRP | -0.27 |
| RRIRWRPPRLPRPRPRPYRMPRP | 0.0292 |
| RRIRCRPPRLPRPRPRPNMDPRP | -0.431 |
| RRIRFRPPRLPRPRPRPFCPPRP | -0.386 |
| RRIRFRPPRLPRPRPRPKCKPRP | 0.00614 |
| RRIRFRPPRLPRPRPRPSGVPRP | 0.0832 |
| RRIRPRPPRLPRPRPRPSYPPRP | -0.181 |
| RRIRHRPPRLPRPRPRPSYSPRP | -0.314 |
| RRIRDRPPRLPRPRPRPHYKPRP | -0.297 |

| Sequence | shrunken log2 fold change |
| --- | --- |
| RRIRRRPPRLPRPRPRPSHHPRP | -0.173 |
| RRIRARPPRLPRPRPRPQCLPRP | 0.23 |
| RRIRFRPPRLPRPRPRPYVLPRP | -0.332 |
| RRIRPRPPRLPRPRPRPNMKPRP | -0.52 |
| RRIRSRPPRLPRPRPRPCYVPRP | -0.338 |
| RRIRQRPPRLPRPRPRPRLRPRP | 0.44 |
| RRIRYRPPRLPRPRPRPPKKPRP | -0.0754 |
| RRIRIRPPRLPRPRPRPKLLPRP | 0.0419 |
| RRIRARPPRLPRPRPRPFRAPRP | 0.0497 |
| RRIRIRPPRLPRPRPRPDWAPRP | -0.0489 |
| RRIRNRPPRLPRPRPRPTTRPRP | 0.0475 |
| RRIRPRPPRLPRPRPRPFAKPRP | 0.0716 |
| RRIRDRPPRLPRPRPRPRGCPRP | 0.786 |
| RRIRGRPPRLPRPRPRPERWPRP | 1.19 |
| RRIRPRPPRLPRPRPRPCERPRP | 0.0579 |
| RRIRKRPPRLPRPRPRPNYHPRP | -0.331 |
| RRIRMRPPRLPRPRPRPTPLPRP | 1.01 |
| RRIRWRPPRLPRPRPRPCDCPRP | -0.291 |
| RRIRGRPPRLPRPRPRPGHVPRP | 0.204 |
| RRIRPRPPRLPRPRPRPNQKPRP | -0.0811 |
| RRIRNRPPRLPRPRPRPLVAPRP | -0.124 |
| RRIRWRPPRLPRPRPRPCRYPRP | -0.129 |

| Sequence | shrunken log2 fold change |
| --- | --- |
| RRIRARPPRLPRPRPRPNFYPRP | 0.0801 |
| RRIRCRPPRLPRPRPRPWTRPRP | 0.0156 |
| RRIRDRPPRLPRPRPRPGLFPRP | 0.949 |
| RRIRIRPPRLPRPRPRPKLVPRP | 0.116 |
| RRIRVRPPRLPRPRPRPFTEPRP | -0.423 |
| RRIRRRPPRLPRPRPRPHKAPRP | 0.434 |
| RRIRMRPPRLPRPRPRPCYKPRP | -0.145 |
| RRIRIRPPRLPRPRPRPEPMPRP | 0.132 |
| RRIRIRPPRLPRPRPRPHMDPRP | -0.103 |
| RRIRYRPPRLPRPRPRPNTTPRP | -0.114 |
| RRIRRRPPRLPRPRPRPFHIPRP | -0.0758 |
| RRIRPRPPRLPRPRPRPPVVPRP | 0.649 |
| RRIRVRPPRLPRPRPRPGIYPRP | -0.623 |
| RRIRCRPPRLPRPRPRPLQLPRP | -0.546 |
| RRIRDRPPRLPRPRPRPRVDPRP | 0.325 |
| RRIRERPPRLPRPRPRPLEDPRP | -0.157 |
| RRIRIRPPRLPRPRPRPIVPPRP | -0.407 |
| RRIRERPPRLPRPRPRPAIDPRP | -0.457 |
| RRIRDRPPRLPRPRPRPEHWPRP | 0.598 |
| RRIRKRPPRLPRPRPRPAHHPRP | -0.00814 |
| RRIRCRPPRLPRPRPRPTLGPRP | 0.168 |

Reference: the supplement of paper PMC9112550, “Optimization of the antimicrobial peptide Bac7 by deep mutational scanning” (BMC Biology, 2022)
